{
  "source": "paper PMC3517355",
  "binders": {"B1": {"name": "Gn6-7bR (ssDNA)", "DNA": "ATCCGTCACACCTGCTCTCACATACTGGTCAGTCTCTATCGAGGCGGGCATTGGTGTTGGCTCCCGTAT"}, "B2": {"name": "Gn6-16cR (ssDNA)", "DNA": "ATCCGTCACACCTGCTCTGTCGGGATGCGCCGGGCCGCCATGATTAGTGTGCTCTGGTGTTGGCTCCCGTAT"}, "B3": {"name": "E7b-6R (ssDNA)", "DNA": "ATCCGTCACACCTGCTCTTAACCTATTTGGGTCGCGTTCTCAAAATAACTTCTGTGGTGTTGGCTCCCGTAT"}, "B4": {"name": "Gn6-15R (ssDNA)", "DNA": "ATCCGTCACACCTGCTCTGGGCCAGGTAAGAAGATGCGAGCTGTGTAATACATGTGGTGTTGGCTCCCGTAT"}, "B5": {"name": "Gn6-16cF (ssDNA)", "DNA": "ATACGGGAGCCAACACCAGAGCACACTAATCATGGCGGCCCGGCGCATCCCGACAGAGCAGGTGTGACGGAT"}, "B6": {"name": "Gn6-6R (ssDNA)", "DNA": "ATCCGTCACACCTGCTCTGCATATAAATTTTTAACAAGGGACTGGTAACTATCCTGGTGTTGGCTCCCGTAT"}, "B7": {"name": "E7b-1aR (ssDNA)", "DNA": "ATCCGTCACACCTGCTCTGGAAGCTTCATATTTTGAGGAATCCTCTTGAATTATGGTGTTGGCTCCCGTAT"}, "B8": {"name": "E7b-1aF (ssDNA)", "DNA": "ATACGGGAGCCAACACCATAATTCAAGAGGATTCCTCAAAATATGAAGCTTCCAGAGCAGGTGTGACGGAT"}, "B9": {"name": "E7a-5R (ssDNA)", "DNA": "ATCCGTCACACCTGCTCTTGACACGCGTACGGGGTCCGGACATGTCATAACGGACTGGTGTTGGCTCCCGTAT"}, "B10": {"name": "E7b-8a/10/16-19/23-25R (ssDNA)", "DNA": "ATCCGTCACACCTGCTCTTGACACGCGTACGGGTCCGGACATGTCATAACGGACTGGTGTTGGCTCCCGTAT"}, "B11": {"name": "E7b-14R (ssDNA)", "DNA": "B10 DNA with A23G, T28A, T42C, C54A, T60C, T72A"}, "B12": {"name": "Gn6-5F (ssDNA)", "DNA": "ATACGGGAGCCAACACCACGCCTTGTCTATTCTCTTAGTTTCCTGCTACTCCACAGAGCAGGTGTGACGGAT"}, "B13": {"name": "E7a-20R (ssDNA)", "DNA": "ATCCGTCACACCTGCTCTGGTTAAACGATATGGGGCCTGCCGTTATAACTGCGTGGTGTTGGCTCCCGTAT"}, "B14": {"name": "E7a-8R (ssDNA)", "DNA": "ATCCGTCACACCTGCTCTCGCTGAAGCAAGACATTATCGGGACATTGCCGTGATGGTGTTGGCTCCCGTAT"}, "B15": {"name": "E7b-20/21R (ssDNA)", "DNA": "B14 DNA"}, "B16": {"name": "E7b-1bR (ssDNA)", "DNA": "ATCCGTCACACCTGCTCTTTGACACGCGTACGGGTCCGGACATGTCATAACGGACTGGTGTTGGCTCCCGTAT"}, "B17": {"name": "E7a-33R (ssDNA)", "DNA": "ATCCGTCACACCTGCTCTACATCACATCTGACTGAGTCCATGGCGCTCTGTGTGTGGTGTTGGCTCCCGTAT"}, "B18": {"name": "E7a-11R (ssDNA)", "DNA": "ATCCGTCACACCTGCTCTCGTGTGATATATATGGTAAGGGGGGTTAGTACTGCTGGTGTTGGCTCCCGTAT"}, "B19": {"name": "Gn6-17F (ssDNA)", "DNA": "ATACGGGAGCCAACACCAAACTAGACAACCGCCCTTATACACACTGTACCAGTAGAGCAGGTGTGACGGAT"}, "B20": {"name": "E7b-5R (ssDNA)", "DNA": "ATCCGTCACACCTGCTCTTGGGCATCAGCGGGCGATGCATGCGATAAATTAGTGTGGTGTTGGCTCCCGTAT"}, "B21": {"name": "E7b-1bF (ssDNA)", "DNA": "ATACGGGAGCCAACACCAGTCCGTTATGACATGTCCGGACCCGTACGCGTGTCAAAGAGCAGGTGTGACGGAT"}, "B22": {"name": "E7a-18F (ssDNA)", "DNA": "ATACGGGAGCCAACACCAACAGATGGATAAGGGGGAAACTGCCCATTCGGTTAGTAGAGCAGGTGTGACGGAT"}, "B23": {"name": "E7a-20F (ssDNA)", "DNA": "ATACGGGAGCCAACACCACGCAGTTATAACGGCAGGCCCCATATCGTTTAACCAGAGCAGGTGTGACGGAT"}, "B24": {"name": "Gn6-25R (ssDNA)", "DNA": "ATCCGTCACACCTGCTCTACAGTTAGAGCTTGCCGTATGCCTTTGTTAACATAATGGTGTTGGCTCCCGTAT"}, "B25": {"name": "E7c-23/25R (ssDNA)", "DNA": "B24 DNA"}, "B26": {"name": "E7a-23F (ssDNA)", "DNA": "ATACGGGAGCCAACACCATGTCAGGACCTCCATCGCCCGGGCCCGCCGCCGCTGAGAGCAGGTGTGAC"}, "B27": {"name": "E7b-3R (ssDNA)", "DNA": "ATCCGTCACACCTGCTCTAAAGGATCCTTCTTAGCATCACATTATGATAAGATATGGTGTTGGCTCCCGTAT"}, "B28": {"name": "Gn6-18F (ssDNA)", "DNA": "ATACGGGAGCCAACACCATACGCACCCGCATTCGTTAGTGTGTACAGTATGTCCAGAGCAGGTGTGACGGAT"}, "B29": {"name": "Gn6-30F (ssDNA)", "DNA": "ATACGGGAGCCAACACCATCCCACCGAATATCCGCTTTCCTCGTCCTCCTTTCAGAGCAGGTGTGACGGAT"}, "B30": {"name": "E7a-33F (ssDNA)", "DNA": "ATACGGGAGCCAACACCACACACAGAGCGCCATGGACTCAGTCAGATGTGATGTAGAGCAGGTGTGACGGAT"}, "B31": {"name": "E7a-29F (ssDNA)", "DNA": "B30 DNA with G7C, G25T, C31T, A32T, G35T, C37T, T42C, A44G"}},
  "test_in_all_cases": "ELASA; […] (0.5 M NaCl, 10 mM Tris-HCl, 1 mM MgCl2, pH 7.5-7.6), 1 h, RT (~25 C); […]",
  "settings_in_all_cases": "label: 5'-biotin",
  "key": {"[1]": {"target": "T1, CCHF Altamura Gn 611 peptide (Crimean-Congo hemorrhagic fever virus, UniProt Q8JSZ3)", "T1 chain": "TQEGRGHVKLSRGSE"}, "[2]": {"target": "CCHF 11E7b peptide (Crimean-Congo hemorrhagic fever virus, UniProt Q8JSZ3)"}, "[3]": {"target": "CCHF 11E7a peptide (Crimean-Congo hemorrhagic fever virus, UniProt Q8JSZ3)"}, "[4]": {"target": "CCHF 11E7c peptide (Crimean-Congo hemorrhagic fever virus, UniProt Q8JSZ3)"}},
  "note": "Residue numbers refer to the chain shown, from its start.",
  "data": [
    {"binder": "B1", "values": [
      {"measurement": "binding signal", "setting": "[1]", "result": 1.69, "unit": "A405"}
    ]},
    {"binder": "B2", "values": [
      {"measurement": "binding signal", "setting": "[1]", "result": 1.67, "unit": "A405"}
    ]},
    {"binder": "B3", "values": [
      {"measurement": "binding signal", "setting": "[2]", "result": 1.86, "unit": "A405"}
    ]},
    {"binder": "B4", "values": [
      {"measurement": "binding signal", "setting": "[1]", "result": 1.63, "unit": "A405"}
    ]},
    {"binder": "B5", "values": [
      {"measurement": "binding signal", "setting": "[1]", "result": 1.9, "unit": "A405"}
    ]},
    {"binder": "B6", "values": [
      {"measurement": "binding signal", "setting": "[1]", "result": 1.64, "unit": "A405"}
    ]},
    {"binder": "B7", "values": [
      {"measurement": "binding signal", "setting": "[2]", "result": 2, "unit": "A405"}
    ]},
    {"binder": "B8", "values": [
      {"measurement": "binding signal", "setting": "[2]", "result": 1.83, "unit": "A405"}
    ]},
    {"binder": "B9", "values": [
      {"measurement": "binding signal", "setting": "[3]", "result": 2.08, "unit": "A405"}
    ]},
    {"binder": "B10", "values": [
      {"measurement": "binding signal", "setting": "[2]", "result": 2, "unit": "A405"}
    ]},
    {"binder": "B11", "values": [
      {"measurement": "binding signal", "setting": "[2]", "result": 1.9, "unit": "A405"}
    ]},
    {"binder": "B12", "values": [
      {"measurement": "binding signal", "setting": "[1]", "result": 1.75, "unit": "A405"}
    ]},
    {"binder": "B13", "values": [
      {"measurement": "binding signal", "setting": "[3]", "result": 2.04, "unit": "A405"}
    ]},
    {"binder": "B14", "values": [
      {"measurement": "binding signal", "setting": "[3]", "result": 2.04, "unit": "A405"}
    ]},
    {"binder": "B15", "values": [
      {"measurement": "binding signal", "setting": "[2]", "result": 1.78, "unit": "A405"}
    ]},
    {"binder": "B16", "values": [
      {"measurement": "binding signal", "setting": "[2]", "result": 2.07, "unit": "A405"}
    ]},
    {"binder": "B17", "values": [
      {"measurement": "binding signal", "setting": "[3]", "result": 2.12, "unit": "A405"}
    ]},
    {"binder": "B18", "values": [
      {"measurement": "binding signal", "setting": "[3]", "result": 2.07, "unit": "A405"}
    ]},
    {"binder": "B19", "values": [
      {"measurement": "binding signal", "setting": "[1]", "result": 1.82, "unit": "A405"}
    ]},
    {"binder": "B20", "values": [
      {"measurement": "binding signal", "setting": "[2]", "result": 1.86, "unit": "A405"}
    ]},
    {"binder": "B21", "values": [
      {"measurement": "binding signal", "setting": "[2]", "result": 1.88, "unit": "A405"}
    ]},
    {"binder": "B22", "values": [
      {"measurement": "binding signal", "setting": "[3]", "result": 2.08, "unit": "A405"}
    ]},
    {"binder": "B23", "values": [
      {"measurement": "binding signal", "setting": "[3]", "result": 2.02, "unit": "A405"}
    ]},
    {"binder": "B24", "values": [
      {"measurement": "binding signal", "setting": "[1]", "result": 1.94, "unit": "A405"}
    ]},
    {"binder": "B25", "values": [
      {"measurement": "binding signal", "setting": "[4]", "result": 2.12, "unit": "A405"}
    ]},
    {"binder": "B26", "values": [
      {"measurement": "binding signal", "setting": "[3]", "result": 2.23, "unit": "A405"}
    ]},
    {"binder": "B27", "values": [
      {"measurement": "binding signal", "setting": "[2]", "result": 1.94, "unit": "A405"}
    ]},
    {"binder": "B28", "values": [
      {"measurement": "binding signal", "setting": "[1]", "result": 1.86, "unit": "A405"}
    ]},
    {"binder": "B29", "values": [
      {"measurement": "binding signal", "setting": "[1]", "result": 1.75, "unit": "A405"}
    ]},
    {"binder": "B30", "values": [
      {"measurement": "binding signal", "setting": "[3]", "result": 2.07, "unit": "A405"}
    ]},
    {"binder": "B31", "values": [
      {"measurement": "binding signal", "setting": "[3]", "result": 2.06, "unit": "A405"}
    ]}
  ]
}
